Data taken from PMC7925690, “A molecular switch in sulfur metabolism to reduce arsenic and enrich selenium in rice grain” (Nature Communications, 2021).
Values belong to the molecule of their own block, whether it stands above or below them.

Columns and labels:
AtOAS-TL A = target: T1, AtOAS-TL A (Arabidopsis thaliana, UniProt P47998); assay: microscale thermophoresis, RED-tris-NTA labelled His-tagged protein; assay type: binding
T1 construct: gene OASA1; full-length ORF, C-terminal His tag (pET-29a NdeI/XhoI); E. coli BL21(DE3); Ni-NTA
T1 sequence (P47998 whole entry): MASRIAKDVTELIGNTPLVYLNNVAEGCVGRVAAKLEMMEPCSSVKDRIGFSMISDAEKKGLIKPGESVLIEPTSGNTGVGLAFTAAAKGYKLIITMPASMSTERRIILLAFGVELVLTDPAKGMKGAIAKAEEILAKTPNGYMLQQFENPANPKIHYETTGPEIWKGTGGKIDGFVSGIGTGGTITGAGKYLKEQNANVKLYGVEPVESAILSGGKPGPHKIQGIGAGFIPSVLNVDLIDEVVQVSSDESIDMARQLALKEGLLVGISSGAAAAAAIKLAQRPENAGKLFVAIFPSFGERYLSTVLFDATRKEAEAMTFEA

OsASTOL1 = target: T2, OsASTOL1 (Oryza sativa, UniProt Q9XEA6); assay: as above; assay type: binding
T2 construct: gene RCS1; mature form, N-terminal 87 residues (first 261 bp) deleted; C-terminal His tag (pET-29a NdeI/XhoI); E. coli BL21(DE3); Ni-NTA; dimer by SEC
T2 sequence (Q9XEA6 whole entry): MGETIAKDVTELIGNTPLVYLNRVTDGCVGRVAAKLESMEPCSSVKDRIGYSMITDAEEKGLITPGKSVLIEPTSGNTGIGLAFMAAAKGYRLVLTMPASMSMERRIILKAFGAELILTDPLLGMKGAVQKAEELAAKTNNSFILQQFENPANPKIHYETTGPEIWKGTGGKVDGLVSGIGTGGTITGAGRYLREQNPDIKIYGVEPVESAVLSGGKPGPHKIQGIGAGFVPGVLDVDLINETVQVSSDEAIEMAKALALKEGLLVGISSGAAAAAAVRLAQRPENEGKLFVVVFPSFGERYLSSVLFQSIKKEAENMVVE

[1] = target: mature OsASTOL1 protein (untagged) (rice (Oryza sativa cv. Kasalath)) (UniProt Q9XEA6); assay: SEC; HiLoad 16/60 Superdex 200 prep grade, 20 mM Tris-HCl, 150 mM NaCl, pH 7.5, 1 ml/min; 1 mg protein in 1 ml injected; molecular weight from a calibration curve
[2] = target: mature OsASTOL1^S189N protein (untagged) (rice (Oryza sativa cv. Kasalath)) (UniProt Q9XEA6); assay: as above
AtOAS-TL A^S102N-His = target: T3, AtOAS-TL A^S102N-His (Arabidopsis thaliana, UniProt P47998 1-322, S102N, labeled with RED-tris-NTA 2nd Generation Dye); assay: MST; His-tagged OAS-TL labeled with RED-tris-NTA 2nd Generation Dye (100 µM as printed) with a serial dilution of the AtSAT5C10 peptide; PBS pH 7.6, 0.05% Tween 20; Monolith NT.115; conditions: both partners purified
T3 construct: Arabidopsis thaliana cytosolic O-acetylserine(thiol)lyase A, site-directed mutant; ORF without the stop codon; Cloned into the NdeI/XhoI sites of pET-29a; also called His-tagged AtOAS-TL A^S102N; source: E. coli BL21 (DE3), purified (Ni-NTA); not shown: His, C-terminal, kept
T3 sequence (P47998 whole entry S102N): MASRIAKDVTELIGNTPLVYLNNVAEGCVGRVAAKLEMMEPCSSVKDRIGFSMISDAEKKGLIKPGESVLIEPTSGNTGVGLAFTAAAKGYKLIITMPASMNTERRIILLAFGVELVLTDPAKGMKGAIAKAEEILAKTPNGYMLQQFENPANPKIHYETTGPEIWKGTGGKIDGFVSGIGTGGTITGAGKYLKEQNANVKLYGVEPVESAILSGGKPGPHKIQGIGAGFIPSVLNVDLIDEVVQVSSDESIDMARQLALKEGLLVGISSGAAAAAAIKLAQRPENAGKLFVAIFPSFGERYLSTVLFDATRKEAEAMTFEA

AtOAS-TL A-His = target: T4, AtOAS-TL A-His (Arabidopsis thaliana, UniProt P47998 1-322, labeled with RED-tris-NTA 2nd Generation Dye); assay: as above; conditions: both partners purified
T4 construct: Arabidopsis thaliana cytosolic O-acetylserine(thiol)lyase A; ORF without the stop codon; Cloned into the NdeI/XhoI sites of pET-29a; also called His-tagged AtOAS-TL A; source: E. coli BL21 (DE3), purified (Ni-NTA); not shown: His, C-terminal, kept
T4 sequence (P47998 whole entry): as the sequence (P47998 whole entry) above

Molecule: mature OsASTOL1^S189N protein (untagged) (from UniProt Q9XEA6 88-321) (enzyme)
stoichiometry N [2]: 2

B1: AtSAT5C10 peptide (peptide)
peptide: FISEWSDYII
notes: Ten C-terminal residues of Arabidopsis thaliana serine acetyltransferase 5 (AtSAT5), AT5G56760; also called C-terminal fragment of SAT5; AtSAT5C10 fragment; source: synthetic peptide (GenScript Biotech, Nanjing)
binding result (AtOAS-TL A^S102N-His): binds | binding result (AtOAS-TL A-His): binds

Further lines, results first:

Kd (AtOAS-TL A): 13.1 ± 4.83 nM | Kd (OsASTOL1): 1.47 ± 2.42 nM
Molecule: CC(=O)OC[C@H](N)C(=O)O [OAS]

stoichiometry N [1]: 2
Molecule: mature OsASTOL1 protein (untagged) (from UniProt Q9XEA6 88-321) (enzyme)
